This note sets out measurements from patent US20200055941A1 (MILTENYI BIOTEC, published 2020).

The target in test [1] is T1, Recombinant Human Fc gamma RIIb/CD32b (human, UniProt P31994 46-217).
T1 construct: also called FcγRIIb; CD32b/c
T1 sequence (looked up): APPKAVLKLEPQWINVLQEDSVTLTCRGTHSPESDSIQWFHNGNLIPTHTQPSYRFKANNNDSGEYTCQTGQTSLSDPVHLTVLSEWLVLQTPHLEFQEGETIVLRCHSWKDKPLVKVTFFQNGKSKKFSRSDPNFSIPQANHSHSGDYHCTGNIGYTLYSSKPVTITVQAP
In words: ELISA, plates coated with recombinant CD32b/c, anti-human kappa-HRP. On the procedure: To examine more precisely the CD32b/c binding of MB101, the wt IgG₄ and the two single mutation variants, linear dilutions of the mAbs were incubated with ELISA plates previously coated with recombinant CD32b/c. FcR-bound anti-BDCA2 Ab were probed with anti-human kappa-HRP and TMB-substrate.
(§1) ELISA plates were coated with Fc gamma receptors I, IIa, IIb, IIIa and IIIb with 5 μg/mL each in coating buffer overnight at 4° C. Coated plates were washed 3-fold with 1×PBS 0.05% Tween 20 and blocked with 5% BSA in 1×PBS. Antibodies were applied to ELISA plates with 50 μL/well at serial 2-fold dilution of antibody solution and incubated at room temperature for 1 h. As blank controls, respective antibody concentrations were also applied to wells lacking coated Fc gamma receptors, in order to subtract unspecific binding from resulting signals. After washing (see above), the detection antibody anti-human kappa-HRP (FE 110316.07) 1:4000 in 1×PBS was applied with 50 μL/well and incubated again at RT for 1 h. After additional washing (see above), for assay development 50 μL/well TMB (CH111027.37) were applied and stopped after approx. 5 minutes with 50 μL/well 10% H₂SO₄. The developed plate was then analyzed via ELISA reader at 450 nm wavelength.
(In general: An ELISA detects its analyte on a solid surface through an enzyme-linked reagent.)

Test [2] deals with T1, Recombinant Human Fc gamma RIIb/CD32b. Kind of test: ELISA, plate-bound recombinant receptor, anti-human kappa-HRP. On the procedure:
as §1

Test [3] has as its target T2, Recombinant Human Fc gamma RIIIb/CD16b (human, UniProt O75015 17-200).
T2 construct: also called Fcγ RIIIb/c; CD16b/c
The test is described as above. On the procedure: as §1

T2 sequence (O75015 17-200 limits assumed): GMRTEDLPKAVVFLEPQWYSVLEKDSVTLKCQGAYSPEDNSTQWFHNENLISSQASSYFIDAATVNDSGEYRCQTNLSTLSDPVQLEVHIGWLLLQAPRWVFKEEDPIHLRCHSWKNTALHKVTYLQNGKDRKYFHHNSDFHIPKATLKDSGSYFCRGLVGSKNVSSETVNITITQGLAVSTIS

B1: aCD303-hIgG4-WT (antibody)
heavy: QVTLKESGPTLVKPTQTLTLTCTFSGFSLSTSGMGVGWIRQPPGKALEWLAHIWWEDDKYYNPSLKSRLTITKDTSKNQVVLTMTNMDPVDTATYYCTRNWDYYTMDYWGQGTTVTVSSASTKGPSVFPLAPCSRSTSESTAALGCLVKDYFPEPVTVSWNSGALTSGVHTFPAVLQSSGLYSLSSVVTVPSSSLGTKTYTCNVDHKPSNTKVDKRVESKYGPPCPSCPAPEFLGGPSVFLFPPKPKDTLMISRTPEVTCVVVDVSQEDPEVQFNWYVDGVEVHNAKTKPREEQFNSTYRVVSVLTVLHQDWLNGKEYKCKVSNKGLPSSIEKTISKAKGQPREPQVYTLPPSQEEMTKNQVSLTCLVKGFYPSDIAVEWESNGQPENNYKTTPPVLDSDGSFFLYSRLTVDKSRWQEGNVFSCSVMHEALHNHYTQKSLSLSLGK
light: DIQMTQSPSSVSASVGDRVTITCRASQEISGYLSWYQQKPGKAIKRLIYAASTLDSGVPSRFSGSRSGTDFTLTISSLQSEDFATYYCLQYASYPPTFGGGTKLEIKGTVAAPSVFIFPPSDEQLKSGTASVVCLLNNFYPREAKVQWKVDNALQSGNSQESVTEQDSKDSTYSLSSTLTLSKADYEKHKVYACEVTHQGLSSPVTKSFNRGEC
notes: MB101 (anti-CD303) expressed as a wild type IgG4; also called wt IgG4; wild type IgG4 antibody (aCD303-hIgG4)
As to B1, the binding result in test [1] was “binds”.

B2: MB101 (aCD303-hIgG4-S241P/R409K) (antibody)
heavy: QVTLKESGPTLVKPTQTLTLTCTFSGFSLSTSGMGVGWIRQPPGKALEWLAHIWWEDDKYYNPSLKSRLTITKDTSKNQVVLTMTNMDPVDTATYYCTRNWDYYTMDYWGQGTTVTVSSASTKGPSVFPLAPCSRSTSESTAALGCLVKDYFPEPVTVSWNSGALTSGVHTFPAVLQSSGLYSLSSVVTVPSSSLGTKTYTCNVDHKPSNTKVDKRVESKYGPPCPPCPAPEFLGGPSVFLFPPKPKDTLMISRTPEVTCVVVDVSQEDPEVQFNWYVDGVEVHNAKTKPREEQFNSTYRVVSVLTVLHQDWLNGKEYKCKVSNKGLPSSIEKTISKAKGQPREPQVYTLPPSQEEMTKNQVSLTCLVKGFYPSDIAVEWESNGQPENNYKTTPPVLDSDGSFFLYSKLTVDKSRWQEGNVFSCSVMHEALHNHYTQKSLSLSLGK
light: B1 light
notes: Humanized IgG4 against BDCA-2 (CD303), made in CHO DG44 cells; also called MB101.10; anti-CD303 IgG4 S241P/R409K
Take B2: the binding result in test [2] was “binds”; in test [3], “no binding”.

B3: Pool 6 (aCD303-hIgG4-R409K) (antibody)
heavy: QVTLKESGPTLVKPTQTLTLTCTFSGFSLSTSGMGVGWIRQPPGKALEWLAHIWWEDDKYYNPSLKSRLTITKDTSKNQVVLTMTNMDPVDTATYYCTRNWDYYTMDYWGQGTTVTVSSASTKGPSVFPLAPCSRSTSESTAALGCLVKDYFPEPVTVSWNSGALTSGVHTFPAVLQSSGLYSLSSVVTVPSSSLGTKTYTCNVDHKPSNTKVDKRVESKYGPPCPSCPAPEFLGGPSVFLFPPKPKDTLMISRTPEVTCVVVDVSQEDPEVQFNWYVDGVEVHNAKTKPREEQFNSTYRVVSVLTVLHQDWLNGKEYKCKVSNKGLPSSIEKTISKAKGQPREPQVYTLPPSQEEMTKNQVSLTCLVKGFYPSDIAVEWESNGQPENNYKTTPPVLDSDGSFFLYSKLTVDKSRWQEGNVFSCSVMHEALHNHYTQKSLSLSLGK
light: B1 light
notes: Single mutation variant of MB101; also called anti-CD303 IgG4 R409K; IgG4 variant R409K
As for B3, the binding result in test [1] was “binds”.
